Assay results: patent US7217548B2, “N-acetylglucosaminlytransferase and polynucleotide encoding the same” (National Institute of Advanced Industrial Science and …, priority 2000, dated 2007)

Test system: T1, CC(=O)N[C@@H](C)C(=O)N[C@@H](C)C(=O)N1CCC[C@H]1C(=O)N[C@H](C(=O)N1CCC[C@H]1C(=O)N[C@H](C(=O)N[C@@H](C)C(=O)N[C@@H](C)C(=O)N1CCC[C@H]1C(N)=O)C(C)C)[C@@H](C)O[C@H]1O[C@H](CO)[C@@H](O)[C@H](O)[C@@H]1O
T1 construct: 595 amino acids from 66: Ser thereof (66: Ser to 660: Thr), respectively; Ig kappa chain secretory signal (N); made in house; host or cells: HEK293T (transient, secreted into serum-free medium)
Experiment: Substrate specificity and kinetic parameters of solubilized human OMGnT enzyme (L)
Format: biochemical
Conditions: other: 125 mM MOPS pH7.3, 0.2 mM UDP-GlcNAc, 7.5 mM MnCl2, 37° C., 2 hours, pH 7.3
Procedure: […] […] The reaction mixture was then filtered with a filter Ultrafree-MC (Millipore) having a pore size of 0.22 μm to remove solids, and analyzed by Wakopak 5C18-200 column (4.6×250 mm, Wako Pure Chemical Industries, Ltd.). The separation was carried out using concentration gradient with Solution A and Solution B at a flow rate of 1.0 ml/min. […] Peptide detection was carried out at 214 nm, and the radioactivity of each fraction was assayed using a liquid scintillation counter.
The activity of GnT-1 was assayed with a method by Yoshida et al. [Yoshida, S., Suzuki, M., Yamano, S., Takeuchi, M., Ikenaga, H., Kioka, N., Sakai, H., and Komano, T., Glycobiology, (1999), 9, 53–58] as described below. A 20 μl reaction solution was prepared by adding an enzyme source thereto so as to have a final concentration of 100 mM MES (pH 6.0), 20 mM MnCl2, 5 μM Manα1–6(Manα1–3)Manα1–6(Manα1–3)Manβ1–4GlcNAcβ1–4GlcNAc-PA(M5GN2-PA; Takara Shuzo, PA-Sugar Chain 017), 1 mM UDP-GlcNAc, 100 mM GlcNAc, 5 mM AMP, 1% Triton X-100, and 0.2% BSA. The reaction solution was incubated at 37° C. for 1 hour, and the reaction was terminated in boiling water. Thereafter, the reaction solution was analyzed by a reverse phase HPLC (Cosmosil 5C18-AR column) available from Nacalai Tesque. […]

Chain of His-Xpress-sOMGnT(L) (Homo sapiens; M623V) (chain, as listed by the source M623V): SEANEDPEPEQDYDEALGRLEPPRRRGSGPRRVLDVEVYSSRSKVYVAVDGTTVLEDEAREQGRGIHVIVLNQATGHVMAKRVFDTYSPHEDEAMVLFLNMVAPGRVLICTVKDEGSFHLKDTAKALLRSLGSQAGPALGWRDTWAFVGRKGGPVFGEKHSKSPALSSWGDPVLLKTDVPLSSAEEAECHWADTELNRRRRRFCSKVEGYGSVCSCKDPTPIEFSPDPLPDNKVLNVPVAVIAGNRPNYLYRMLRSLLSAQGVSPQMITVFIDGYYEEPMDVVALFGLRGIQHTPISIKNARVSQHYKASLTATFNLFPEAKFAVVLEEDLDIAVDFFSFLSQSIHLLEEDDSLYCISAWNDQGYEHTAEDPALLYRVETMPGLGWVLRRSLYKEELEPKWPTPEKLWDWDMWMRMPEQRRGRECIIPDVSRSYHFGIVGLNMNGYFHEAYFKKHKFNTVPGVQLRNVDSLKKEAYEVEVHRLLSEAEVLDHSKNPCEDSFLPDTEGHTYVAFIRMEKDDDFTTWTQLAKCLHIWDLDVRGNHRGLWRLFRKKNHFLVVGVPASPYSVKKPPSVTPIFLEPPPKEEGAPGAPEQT

In the case of “His-Xpress-sOMGnT(L) (Homo sapiens; M623V)”, the Km is reported as 1850 µM.
